In patent publication US20190302117:

How the values were obtained:
[1] = test system: Peptide 10: EDPIYVTLEGGKKK (version of peptide 2 used for the kinetic experiments)
[2] = test system: Peptide 11: DEAIYATVAGGKKK (version of peptide 5 used for the kinetic experiments)

Substance	2/5 kcat/Km ratio (peptide 2 against peptide 5) [1]	Km [1] [µM]	kcat [1] [s⁻¹]	kcat/Km [1] [M⁻¹ s⁻¹]	Km [2] [µM]	kcat [2] [s⁻¹]	kcat/Km [2] [M⁻¹ s⁻¹]
SYK as GST fusion protein	1.8	> 200	> 2e-07	1080	> 200	> 0.1	560
SRC as GST fusion protein	–	–	> 40	17500	–	> 2	9500
